Measurements taken from publication PMC9177745 (Biochemistry, 2022).

Columns and labels:
[1] = target: T1, PhnY (in the 1:1 PhnY/Z system) (uncultured bacterium HF130_AEPn_1, UniProt D0E8I4); experiment: steady-state kinetics of the coupled PhnY/Z system; assay type: biochemical; conditions: two-enzyme PhnY/Z system; apparent Km of the system
T1 sequence (D0E8I4 1-262): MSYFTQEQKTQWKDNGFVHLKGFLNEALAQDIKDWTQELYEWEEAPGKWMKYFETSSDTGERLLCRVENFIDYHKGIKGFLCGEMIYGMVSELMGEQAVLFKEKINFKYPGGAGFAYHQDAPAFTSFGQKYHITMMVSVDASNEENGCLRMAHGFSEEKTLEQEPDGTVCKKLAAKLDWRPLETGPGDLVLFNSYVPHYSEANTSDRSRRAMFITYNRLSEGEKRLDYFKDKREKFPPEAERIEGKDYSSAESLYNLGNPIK

[2] = substrate: NCCCP(=O)(O)O; experiment: steady-state kinetics, conversion to inorganic phosphate; assay type: biochemical, Fonsecaea multimorphosa; conditions: two-step reaction to phosphate; co-substrates presumably as for 2AEP
[3] = substrate: NCCP(=O)(O)O; experiment: as above; assay type: biochemical, Fonsecaea multimorphosa; conditions: O2, alpha-ketoglutarate, Fe(II), ascorbate; apparent Km of the two-step reaction
[4] = substrate: NC[C@H](O)P(=O)(O)O; experiment: steady-state kinetics, C-P bond cleavage; assay type: biochemical, Fonsecaea multimorphosa; conditions: O2; mixed-valent diiron HD-domain site
[5] = substrate: NC[C@H](O)P(=O)(O)O; experiment: steady-state kinetics, C-P bond cleavage; assay type: biochemical, uncultured bacterium HF130_AEPn_1; conditions: O2; mixed-valent diiron site

Molecule: NCCCP(=O)(O)O [3APP]
- KM [1]: the PhnY/Z system is also able to act on 3APP

B1: PhoF (Fonsecaea multimorphosa CBS 102226) (protein)
chain: MSVPEEQMQFFRKNGYLILRNVLSEEETKDLQRWAQEVHDWPTDANSPWMPYEEINAQGQTVLCRTENYANSHAGLNGLLRGQKLLNLLKQLSGEDMLLFKEKINYKLAGSGGFAPHVDSTAYTHIKNIKHLAILLAVDPSDMSNGGLEVVEGSHEMNVPIGEDNCIEPDWVKQQKWTPVELKAGQVLVFGSYLAHRSGANHSNQDRKALYATYNCAREGDLHDEYYAHRKVVWPPAQLRKKGEEYKVGALVYGFGSPMLSVDAGKQLEFDEEEWKSKPRAAKAASRIIDILNQYGNSDYIGEPISQIEHSLQCAYLAAQNMADPQTVAAALLHDIGQIIPERDAEHILGGAQVRSMRQNSGIGADSRSSDSVGRVSHETLGAQYLLALGFPAKVAELVEAHVPAKRYLCATEKGYYSTLSDASKESLRFQGGPMSPDEVRLWQEGSWADEKANLRRWDDGAKVVGLTVPGLETYRPVLEQVLSS
- Km [2]: 305 ± 263 µM
- kcat [2]: 0.57 ± 0.30 s⁻¹
- Km [3]: 197 ± 73 µM
- kcat [3]: 1.16 ± 0.17 s⁻¹
- Km [4]: 43 ± 23 µM
- kcat [4]: 9 ± 2 s⁻¹

B2: PhnZ (uncultured bacterium HF130_AEPn_1) (protein)
chain: MSLSNSSKVSVLISLLEKSRDLDYIGEAINQLEHSLQCAYFAQRSGADNEMVLAALLHDLGHYCNDTSFEDMGGYGVWQHEKVGADYLRGLGFSERVACLIEGHVAAKRYLVSSKASYLKNLSDASRKTLEYQGGPMDEGERRLFEEREDFKDCLKIRAWDEKGKQTDLKVPGPEHYRKMMEEHLSENQN
- Km [5]: 107 ± 29 µM
- kcat [5]: 15 ± 3 s⁻¹
